The values below come from PMC12245071.

Test [1] concerns the target Soc-SpyCatcher displayed on the T4 phage capsid (T4-SpyCatcher phage) (bacteriophage T4). The test is described as follows: co-sedimentation; sequential co-display on T4-SpyCatcher phage: HA-stem trimers added first, incubated, then S-ecto trimers at 1:1; 4 °C, PBS pH 7.4; SDS-PAGE quantification.
Test [2] has the same target. Put plainly: co-sedimentation; sequential co-display on T4-SpyCatcher phage: S-ecto trimers added first at a 0.25:1 ratio, incubated, then HA-stem trimers added at a 1:1 ratio; 4 °C, PBS pH 7.4; SDS-PAGE quantification.
Test [3] has the same target. Put plainly: co-sedimentation; T4-SpyCatcher phage incubated with SpyTagged S-ecto or HA-stem trimers alone at increasing ratios of trimer to Soc binding sites, 4 °C, 1-2 h, PBS pH 7.4; sedimented at 34 000 g, pellets washed twice, SDS-PAGE and band quantification; covalent SpyCatcher-SpyTag conjugation.

“Prefusion-stabilized SARS-CoV-2 spike ectodomain trimer with C-terminal SpyTag (from UniProt P0DTC2 14-1208) (domain or fragment)”: the copies per capsid (copies per capsid) in test [1] was determined as 35; in test [2] it was 56; in test [3], 118.
